Experimental data taken from US20110038869A1 (Genmab, published 2011).
Changes are numbered by the printed parent chain.

T1: biotinylated CD32bECDHis (human, UniProt P31994 43-223, limits assumed, biotinylated (sites not given))
T1 sequence (looked up): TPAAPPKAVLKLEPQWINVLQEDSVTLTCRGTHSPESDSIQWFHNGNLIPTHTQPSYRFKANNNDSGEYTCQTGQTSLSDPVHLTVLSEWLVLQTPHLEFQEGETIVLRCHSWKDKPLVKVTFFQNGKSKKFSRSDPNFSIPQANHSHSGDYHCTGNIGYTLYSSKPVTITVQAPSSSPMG

T2: CD32bECDHis (human, UniProt P31994 43-223, limits assumed)
T2 construct: Produced in HEK-293F cells; also called extracellular domain of CD32b with C-terminal His tag; soluble CD32b
T2 sequence (looked up): T1 sequence (looked up)

B1: Antibody 038 (antibody, human IgG1, V domains shown)
VH: QVQLVESGGGVVQPGRSLRLSCAASGFTFSTYGMHWVRQAPGKGLEWVAVISHDGSDKYYADSVKGRFTISRDNSKNTLYLQMNSLRAEDTAVYYCARDQSIIETFDYWGQGTLVTVSS
VL: EIVLTQSPATLSLSPGERATLSCRASQSVSSYLAWYQQKPGQAPRLLIYDASNRATGIPARFSGSGSGTDFTLTISSLEPEDFAVYYCQQRSNWGFTFGPGTKVDIKR
notes: Human antibody; also called HuMab 038
B2: Antibody 024 (antibody, V domains shown)
VH: QVQLVQSGAEVKKPGASVKVSCKASGYTFTSYGLSWVRQAPGQGLEWMGWISPYNGNTHYAQKLQGRVTMTTDTSTSTAYMDLRSLRSDDTAVYYCARDSAAHGMDVWGQGTTVTVSS
VL: DIQMTQSPSSLSASVGDRVTITCRASQGISSWLAWYQQKPEKAPKSLIYAASSLQSGVPSRFSGSRSGTDFTLTISSLQPEDFATYYCQQYNSYPYTFGQGTKLEIKR
notes: also called HuMab 024
B3: Antibody 026 (antibody, V domains shown)
VH: B2 VH with P53A, H59N
VL: B2 VL
notes: Human antibody; also called HuMab 026
B4: Antibody 022 (antibody, V domains shown)
VH: B2 VH with Y80D, D99A
VL: B2 VL
notes: also called HuMab 022
B5: Antibody 028 (antibody, V domains shown)
VH: B2 VH with L4V, A24T, L34I, P53A, H59K, V68L, S77T, D82E, T115S
VL: B2 VL
notes: List 1 gives no VL for antibody 028; The VL is therefore uncertain; also called HuMab 028
B6: Antibody 020 (antibody, V domains shown)
VH: B2 VH with A9G, A24T, L34I, P53A, H59K, V68L, S77T, D82E
VL: B2 VL with S63R, R66G
notes: also called HuMab 020

What was measured:
biotinylated CD32bECDHis [1] = molecular target: T1, biotinylated CD32bECDHis; test: competition ELISA, competitor 2B6
Experimental: (§1) ELISA wells were coated overnight at 4° C. with anti-CD32b HuMabs serially diluted in PBS. The ELISA wells were washed with PBS, blocked for one hour at room temperature with 2% (v/v) chicken serum (Gibco, Paisley, Scotland) in PBS and washed again with PBS. Subsequently, the immobilized antibodies were incubated with biotinylated CD32bECDHis serially diluted in PBSTC. After washing with PBS/Tween, bound biotinylated CD32bECDHis was incubated with Streptavidin-poly-HRP (Sanquin, Amsterdam, The Netherlands) for 1 hr at RT an the reaction was developed as described supra.
(§2) To this end, ELISA wells coated with anti-CD32b HuMabs were incubated in the presence of an excess of CD32b-specific antibody and the predetermined concentration of biotinylated CD32bECDHis in fluid phase. The reaction was developed as described.

biotinylated CD32bECDHis [2] = molecular target: T1, biotinylated CD32bECDHis; test: competition ELISA, competitor 026
Experimental: as §1, §2

CD32bECDHis [3] = molecular target: T2, CD32bECDHis; test: SPR BIAcore 3000, antibody immobilized, CD32bECDHis analyte
Experimental: Antibody binding to CD32a and CD32b was analyzed by surface plasmon resonance in a BIAcore 3000 (GE Healthcare). CD32aECDHis and CD32bECDHis derived from HEK293 cells were used for the analysis. HuMab antibodies were immobilized on the CM-5 sensor chip according to the procedure recommended by the manufacturer. Briefly, after surface activation by EDC and NHS HuMab antibody was injected over the activated CM-5 surface in 10 mM sodium-acetate, pH ranging from 4.0 to 5.5 at 5 μl/min. followed by 1 M Ethanolamine for deactivation. Concentration series of CD32bECDHis in HBS-EP buffer were injected over the immobilized antibodies at a flow rate of 30 μl/min for 180 sec. Regeneration of the HuMab surface was performed by injection of 10 mM Glycine-HCl pH 2.0 or 10 mM sodium acetate pH 3.0. […] Kinetic analysis is performed using double reference subtraction and model 1:1 (langmuir) binding analysis. Specificity was studied by injecting CD32aECDHis at a concentration of […] over immobilized HuMab and isotype control antibodies under the same conditions as for the CD32b measurements.

biotinylated CD32bECDHis [4] = molecular target: T1, biotinylated CD32bECDHis; test: competition ELISA, competitor 016
Experimental: as §1, §2

CD32bECDHis [5] = molecular target: T2, CD32bECDHis; test: TR-FRET competition against HuMab-KLH-AlexaFluor 647
Excerpt: To study the interaction of anti-CD32b HuMabs with CD32b and CD32a in more detail TR-FRET technology was applied. To this end, CD32bECDHis and CD32aECDHis were labeled with a fluorescent donor molecule directed against the histidine tag (Anti-6×His Europium3+, PerkinElmer, Boston Mass.).
Briefly, all dilutions were made in 0.5× Lance detection buffer (PerkinElmer, Boston Mass.) supplemented with 0.2% BSA (obtained via dilution of 7.5% BSA Stabilizer solution, cat: CR84-100, PerkinElmer) and 0.03% (v/v) Tween-20 (Riedel de Haen, Seelze, Germany). CD32bECDHis and CD32aECDHis were diluted to 0.5 μg/ml. […] Anti-6×His Europium3+ (PerkinElmer, Boston Mass.) was diluted to 0.15 μg/ml. A 4-fold serial dilution of the tested HuMab antibody was made in a 96 wells non-binding plate (cat. 650261, Greiner Bio-one, Frickenhausen, Germany), ranging from 10 μg/ml-0.04 ng/ml. […] After overnight incubation at 4° C. in the dark, fluorescence was measured using an EnVision 2101 Multilabel reader (PerkinElmer, Boston, Mass.) applying the following settings; Lance/Delfia dual mirror, emission filter 615-665 nm, excitation filter 320 nm, delay time 60 μs, window 100 μs, 100 flashes, 2000 μs per cycle and bidirectional row-by-row reading. Binding curves were analyzed using non-linear regression (sigmoidal dose-response with variable slope) using GraphPad Prism V4.03 software (GraphPad Software, San Diego, Calif., USA).

biotinylated CD32bECDHis [6] = molecular target: T1, biotinylated CD32bECDHis; test: competition ELISA, competitor 022
Experimental: as §1, §2

biotinylated CD32bECDHis [7] = molecular target: T1, biotinylated CD32bECDHis; test: competition ELISA, competitor 063
Experimental: as §1, §2

biotinylated CD32bECDHis [8] = molecular target: T1, biotinylated CD32bECDHis; test: competition ELISA, competitor 053
Experimental: as §1, §2

biotinylated CD32bECDHis [9] = molecular target: T1, biotinylated CD32bECDHis; test: competition ELISA, competitor 028
Experimental: as §1, §2

biotinylated CD32bECDHis [10] = molecular target: T1, biotinylated CD32bECDHis; test: competition ELISA, competitor 034
Experimental: as §1, §2

biotinylated CD32bECDHis [11] = molecular target: T1, biotinylated CD32bECDHis; test: competition ELISA, competitor 038
Experimental: as §1, §2

biotinylated CD32bECDHis [12] = molecular target: T1, biotinylated CD32bECDHis; test: competition ELISA, competitor 020
Experimental: as §1, §2

Row | % residual binding (biotinylated CD32bECDHis [1]) [%] | % residual binding (biotinylated CD32bECDHis [2]) [%] | Kd (CD32bECDHis [3]) [nM] | koff (CD32bECDHis [3]) [s⁻¹] | kon (CD32bECDHis [3]) [M⁻¹ s⁻¹] | % residual binding (biotinylated CD32bECDHis [4]) [%] | IC50 (CD32bECDHis [5]) [nM] | % residual binding (biotinylated CD32bECDHis [6]) [%] | % residual binding (biotinylated CD32bECDHis [7]) [%] | % residual binding (biotinylated CD32bECDHis [8]) [%] | % residual binding (biotinylated CD32bECDHis [9]) [%] | % residual binding (biotinylated CD32bECDHis [10]) [%] | % residual binding (biotinylated CD32bECDHis [11]) [%] | % residual binding (biotinylated CD32bECDHis [12]) [%] | % of maximal Fab-mediated inhibition (CD32bECDHis [5]) [%] | Binder
1 | 5 | 308 | 1 | 0.00156 | 1.54e+06 | 105 | 0.37 | 350 | 283 | 333 | 317 | 354 | 17 | 310 |  | B1
2 | 98 | 56 | 0.9 | 0.00126 | 1.44e+06 | 101 | 0.45 | 17 | 68 | 69 | 34 | 6 | 103 | 43 | ~70 | B2
3 | 146 | 4 | 1.3 | 0.00179 | 1.4e+06 | 104 | 0.3 | 1 | 27 | 29 | 3 | 0 | 127 | 4 | ~70 | B3
4 | 96 | 42 | 0.7 | 0.00103 | 1.48e+06 | 102 | 0.44 | 14 | 63 | 64 | 27 | 7 | 115 | 35 | ~70 | B4
5 | 125 | 32 | 1.3 | 0.00199 | 1.58e+06 | 109 | 0.35 | 6 | 45 | 51 | 15 | 2 | 121 | 24 | ~70 | B5
6 | 126 | 28 | 2.4 | 0.00363 | 1.54e+06 | 105 | 0.35 | 6 | 42 | 42 | 13 | 1 | 120 | 20 | ~70 | B6
